Results from patent US20160031952A1.

Assays:
Test in all cases: cell-based or functional assay
[1] = molecular target: transthyretin (TTR), pre-incubated at pH 4.5 for 24 hrs, toxic oligomer-containing solution (UniProt P02766)
[2] = molecular target: β-amyloid peptide 1-42 (Aβ), pre-aggregated for 6 hrs, toxic oligomer-containing solution (UniProt P05067)
[3] = molecular target: β-amyloid peptide 1-42 (Aβ), fresh (0 h), monomeric (UniProt P05067)
Chain of β-amyloid peptide 1-42 (Aβ), fresh (0 h), monomeric (P05067 672-713 limits assumed): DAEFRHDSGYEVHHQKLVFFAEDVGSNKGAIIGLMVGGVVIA

Chain of β-amyloid peptide 1-42 (Aβ), pre-aggregated for 6 hrs, toxic oligomer-containing solution (P05067 672-713 limits assumed): as above

Row | Substance | inhibition of the remaining TTR aggregation after addition to 24-hour pre-incubated, toxic TTR (Congo red) [1] | percentage inhibition of TTR aggregation (Congo red binding, 48 h, 37° C., pH 4.5; peptide co-incubated 20:1 from the start) [1] | inhibition of Aβ fibril formation (ThT fluorescence, 22 hours, 37° C.; peptide co-incubated 10:1 from the start) [2] | inhibition of aggregation after addition to pre-aggregated (6 hrs), toxic Aβ (ThT) [2] | inhibition of Aβ fibrillization (ThT fluorescence; co-incubated 10:1) [3]
1 | α1 (ldas90, peptide #1 of FIG. 5), Ac-RGEmNlSwMNEYSGWtMnLkMGR-NH2 (designed binder) | 81% | 72% | 87% | 97% | 
2 | β (β-sheet control design: Trpzip 3 peptide with Trp to Leu substitutions) (designed binder) |  |  |  |  | 62%
